Reference: PMC4464401, “Biochemical properties and yields of diverse bacterial laccase-like multicopper oxidases expressed in Escherichia coli” (Scientific Reports, 2015)
Blank lines part the entries; values can stand above or below the molecule they belong to.

Tests used:
Test in all cases: spectrophotometric oxidation, Michaelis-Menten fit with uncompetitive substrate inhibition
[1] = target: T1, B. coagulans LMCO (CotA) (Heyndrickxia coagulans, UniProt A0AAN0WB15); type: biochemical; conditions: 30 °C
T1 construct: gene SB48_HM08orf01352
T1 sequence (A0AAN0WB15 1-522): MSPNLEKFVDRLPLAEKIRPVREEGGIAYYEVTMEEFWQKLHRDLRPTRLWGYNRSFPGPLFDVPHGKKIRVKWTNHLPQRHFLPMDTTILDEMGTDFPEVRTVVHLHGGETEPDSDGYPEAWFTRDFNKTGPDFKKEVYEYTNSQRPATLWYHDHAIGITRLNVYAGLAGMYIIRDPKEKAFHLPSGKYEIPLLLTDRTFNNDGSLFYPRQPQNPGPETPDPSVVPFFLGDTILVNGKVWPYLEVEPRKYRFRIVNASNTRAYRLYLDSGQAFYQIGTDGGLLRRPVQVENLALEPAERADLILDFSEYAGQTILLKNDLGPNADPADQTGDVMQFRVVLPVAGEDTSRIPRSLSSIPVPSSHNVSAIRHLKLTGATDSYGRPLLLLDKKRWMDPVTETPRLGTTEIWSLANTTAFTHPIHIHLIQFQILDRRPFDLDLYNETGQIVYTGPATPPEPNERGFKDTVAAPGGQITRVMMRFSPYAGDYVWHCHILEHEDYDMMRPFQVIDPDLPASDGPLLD
Text: spectrophotometric oxidation, Michaelis-Menten fit with uncompetitive substrate inhibition on B. coagulans LMCO (CotA)

[2] = substrate: COc1cccc(OC)c1O; type: biochemical, Shouchella clausii; conditions: pH 8.0, McIlvaine buffer, 30 °C, pH 8.0
Text: (§1) spectrophotometric oxidation, Michaelis-Menten fit with uncompetitive substrate inhibition on B. clausii LMCO (CotA)

[3] = substrate: CCn1c(=NN=c2sc3cc(S(=O)(=O)O)ccc3n2CC)sc2cc(S(=O)(=O)O)ccc21; type: biochemical, Shouchella clausii; conditions: pH 4.0, McIlvaine buffer, 30 °C, pH 4.0
Text: as §1

B. coagulans ([1]; pH 4.0, McIlvaine buffer): 0.94 ± 0.11 mM
Molecule: CCn1c(=NN=c2sc3cc(S(=O)(=O)O)ccc3n2CC)sc2cc(S(=O)(=O)O)ccc21 [ABTS, 2′-azino-bis(3-ethylbenzthiazoline-6-sulphonic acid)]

B. coagulans ([1]; pH 7.5, McIlvaine buffer): 36 ± 9.8 mM
Molecule: COc1cccc(OC)c1O [2,6-DMP, 2,6-dimethoxyphenol]

B1: B. clausii LMCO (CotA) (Shouchella clausii KSM-K16) (protein)
chain: MELEKFVDPMPIMKTAIPKKTSKDGDYYEIEMKEFSQKLHRDLNPTRLWGYDGQFPGPTIEVMRGKPARIKWMNNLPDTHFLPIDRSIHHVAHEPEVRTVVHLHGSETTPASDGYPEAWFTKDFAEVGSFFEQETYEYPNDQRAATLWYHDHAMGITRLNVYAGLSGLYIIRDPREEQLNLPKGEFDIPLLIQDRSFNDDGSLFYPAQPANPAPNLPNPSVLPFFVGDTILVNGKVWPYLQVEPRKYRFRILNGSNSRSYQLALDSEAPFYQIASDGGLLRRTVSLQAFDIRPAERIEAIIDFSKFEGQTITLKNNASTDATADVMQFQVVLPLSGEDTSIIPQNLSYIPSLQQNDVKRIRNLKISGTTDEYGRPLLLLNNKLWSDPVEEKPCLGTTEIWSFVNVTNVPHPMHIHLVQFQLLDHRAFNVELYNENGQIELVGPTIPPKINERGWKDTITAPAGQITRVIARFAPFSGYYVWHCHILEHEDYDMMRPFVVIDPKTEKERR
Km [2]: 8.535 ± 2.394 mM | kcat [2]: 65 ± 15.2 s⁻¹ | Km [3]: 0.132 ± 0.011 mM | kcat [3]: 90 ± 2.3 s⁻¹
